Experimental data: EP4700044A1, “PROTEIN ANALOGUE AND USE THEREOF” (Shanghai Duomirui Biotechnology., Ltd., priority 2023, dated 2024)

molecular target: FGFR1c (UniProt P11362); experiment: cell-based or functional assay
Sequence (P11362 22-822): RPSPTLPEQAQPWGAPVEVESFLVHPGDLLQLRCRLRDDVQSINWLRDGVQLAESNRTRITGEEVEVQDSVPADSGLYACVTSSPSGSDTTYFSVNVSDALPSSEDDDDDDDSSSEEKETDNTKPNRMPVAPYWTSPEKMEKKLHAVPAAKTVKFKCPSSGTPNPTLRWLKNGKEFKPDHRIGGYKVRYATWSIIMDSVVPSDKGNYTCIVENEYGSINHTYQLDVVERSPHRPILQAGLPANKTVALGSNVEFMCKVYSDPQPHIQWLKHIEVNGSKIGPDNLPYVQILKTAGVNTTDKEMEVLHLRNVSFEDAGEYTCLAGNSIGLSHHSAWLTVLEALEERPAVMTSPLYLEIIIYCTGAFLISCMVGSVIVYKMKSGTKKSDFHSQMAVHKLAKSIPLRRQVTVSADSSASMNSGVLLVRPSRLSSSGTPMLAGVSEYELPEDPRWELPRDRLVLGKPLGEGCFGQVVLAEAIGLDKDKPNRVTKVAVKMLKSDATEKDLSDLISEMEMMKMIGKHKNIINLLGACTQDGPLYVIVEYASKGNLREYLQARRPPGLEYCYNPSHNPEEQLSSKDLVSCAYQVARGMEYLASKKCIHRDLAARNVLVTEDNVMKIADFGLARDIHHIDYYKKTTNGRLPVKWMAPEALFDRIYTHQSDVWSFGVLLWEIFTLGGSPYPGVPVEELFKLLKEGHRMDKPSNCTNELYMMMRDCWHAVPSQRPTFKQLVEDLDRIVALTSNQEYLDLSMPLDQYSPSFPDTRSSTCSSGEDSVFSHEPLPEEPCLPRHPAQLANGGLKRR

EC50(nM), dual-luciferase reporter gene assay, iLite FGF21 assay ready cells | Substance
0.22 nM | Human mature FGF21 fusion protein with a N-terminal PAS15 modification (PAS15FGF21) (from UniProt Q9NSA1 29-209) (ligand)
0.3 nM | Human mature FGF21 fusion protein with a N-terminal PAS30 modification (PAS30FGF21) (ligand)
0.4 nM | Human mature FGF21 fusion protein with a N-terminal PAS50 modification (PAS50FGF21) (ligand)
0.62 nM | Human mature FGF21 fusion protein with a N-terminal PAS100 modification (PAS100FGF21) (ligand)
1.98 nM | Human mature FGF21 fusion protein with a N-terminal PAS200 modification (PAS200FGF21) (ligand)
